# Reference: the nanobody polyreactivity screen of Harvey et al. (2022)
# Assay: yeast display, Sf9 membrane polyspecificity reagent, FACS + sequencing; frameworks hold sequencing errors
# Method in brief: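 Sorting gates, low and high (top ~1%), were placed on anti-HA fluorescence to track expression and on streptavidin fluorescence to track reagent binding. A clone's polyreactivity label is taken from the gate it came out of. The reagent was 10% biotinylated, detergent-solubilized Sf9 membrane, applied for 1 hour at 4 °C to galactose-induced yeast display cells.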
row,Sequence,polyreactivity (PSR sort gate)
1,QVQLVESGGGLVQAGGSLRLSCAASGSIFFYYAMGWYRQAPGKERELVAAIDFNGGNTYYADSVKGRFTISRDNAKNTVYLQMNSLKPEDTAVYYCAAEWEGTYTTVPDEFNYWGQGTQVTVSS,high polyreactivity
2,QVQLVESGGGLVQAGGSLRLSCAASGSIFFYYAMGWYRQAPGKERELVAAINWSGVNTYYADSVKGRFTISRDNAKNTVYLQMNSLKPEDTAVYYFNAVVSLTSYGYLGYLFDYWGQGTLVTVSS,low polyreactivity
3,QVQLVESGGGLVQAGGSLRLSCAASGSIFFYYAMGWYRQAPGKERELVAAISGGGRTNYADSVKGRFTISRDNAKNTVYLQMNSLKPEDTAVYYCAADPVYWYSPMDYWGQGTQVTVSS,low polyreactivity
4,QVQLVESGGGLVQAGGSLRLSCAASGSIFFYYAMGWYRQAPGKERELVAAITSSDGDTYYADSVKGRFTISRDNAKNTVYLQMYSLKPEDTAVYYCAAESGPSPPITTSSNEYWGQGTLVTVSS,low polyreactivity
5,QVQLVESGGGLVQAGGSLRLSCAASGSIFFYYTMGWYRQAPGKEREFVAAISGSGGSTYYADSVKGRFTISRDNAKNTVYLQMNSLKPEDTAVYYCAAGLRLDLGAMYYWGQVTQVTVSS,low polyreactivity
6,QVQLVESGGGLVQAGGSLRLSCAASGSIFGAYAMGWYRQAPGKERELVAAISGSGTSTYYADSVKGRFTISRDNAKNTVYLQMNSLKPEDTAVYYCATAKLTWRSQGLDYWGQGTQVTVSS,low polyreactivity
7,QVQLVESGGGLVQAGGSLRLSCAASGSIFGAYAMGWYRQAPGKERELVAVIRWGGGSTYADSVKGRFTISRDNAKNTVYLQMNSLKPEDTAVYYCNRDKSWADLYSHAYDYWGQGTQVTVSS,low polyreactivity
8,QVQLVESGGGLVQAGGSLRLSCAASGSIFGDNAMGWYIQAPGKERELVAAITSSGVRTYYADSVKGRFTISRDNAKNTVYLQMNSLKPEDTAVYYCNADRFRRIRWYAITRSDYWGQGTQVTVSS,high polyreactivity
9,QVQLVESGGGLVQAGGSLRLSCAASGSIFGDYVMGWYRQAPGKERELVAAITSATSTYYADSVKGRFTISRDNAKNTVYLQINSLKPEDTAVYYCNADATYPLWPNIWYDYDYWGQGTQVTVSS,low polyreactivity
10,QVQLVESGGGLVQAGGSLRLSCAASGSIFGEYAMGWYRQAPGKERELVAAITFSTGSTYYADSVKGRFTISRDNAKNTVYLQMNSLKPEDTAVYYCAAESYTYYWYDYEYWGQGTQVTVSS,high polyreactivity
11,QVQLVESGGGLVQAGGSLRLSCAASGSIFGFNAMGWYRQAPGIERELVAAINNGGSTNYADSVKGRFTISRENANNTVYLQMNSLKPEDTADYYCAARLNYIRRGYWGQGTQVTVSS,high polyreactivity
12,QVQLVESGGGLVQAGGSLRLSCAASGSIFGFYAMGWYRQAPGKERELVASISSSGDSTYYADSVKGRFTISRDNAKNTVYLQMNSLNPEDTAVYYCAAVVYDIYGYEFDYWGQGTQVTVSS,low polyreactivity
13,QVQLVESGGGLVQAGGSLRLSCAASGSIFGGNAMGWYRQAPGKERELVAAITSTVSTNYADSVKGRFTISRDNAKNTVYLQMNSLKPEVTAVYYCATDSSNVEGDYWGQGTQVTVSS,low polyreactivity
14,QVQLVESGGGLVQAGGSLRLSCAASGSIFGGYAMGWYRQAPGKERELVAAISWSSSSTYYADSVKGRFTISRDNAKNTVYLQMNSLKPEDTAVYYCNAKPFYDYTEYDYWGQGTQVTVSS,low polyreactivity
15,QVQLVESGGGLVQAGGSLRLSCAASGSIFGGYAMGWYRQAPGKERELVAAITSSGGRTYYADSVKGRFTISRDNAKNTVYLQMNSLKPEDTAVYYCAASPNYYYYYPMYYWGQGTQVTVSS,high polyreactivity
16,QVQLVESGGGLVQAGGSLRLSCAASGSIFGGYAMGWYRQAPGKERELVATISYSGDSTYYADSVKGRFTISRDHAKNTVYLQMNSLKPEDTAVDYCATESNGSPYKGDYWGQGTQVTVSS,low polyreactivity
17,QVQLVESGGGLVQAGGSLRLSCAASGSIFGGYTMGWYRQAPGKERELVAAISRRGGNTYYADSVKGRFTISRDNAKNTVYLQMNSLKPEDTAVYYCNARPTTYNYDYWGQGTQVTVSS,high polyreactivity
18,QVQLVESGGGLVQAGGSLRLSCAASGSIFGGYTMGWYRQAPGKERELVAAISRRGGNTYYADSVKGRFTISRDYAKNTVYLQMNSLKPDDTAVYFCAKRYASTSGYWGQGTQVTVSS,high polyreactivity
19,QVQLVESGGGLVQAGGSLRLSCAASGSIFGHNTMGWYRQAPVKERELVAAISSGSRTNSADTVKGRFTISRDNAKNTVYLQMKSLKPEDTAVDYCATKVYSSRYRGYGYWGQGPQVTVSS,high polyreactivity
20,QVQLVESGGGLVQAGGSLRLSCAASGSIFGINAMGWYRQAPGKERELVAAITNSGANTYYADSVKGRFTISRDNAKNTVYLQMNSLKPEDTAVYYCATDFIGVIYDYWGQGTQVTVSS,low polyreactivity
21,QVQLVESGGGLVQAGGSLRLSCAASGSIFGINAMGWYRQAPWKERELVAAITSDGSTYYADSVKGRFTISRDNAKNTVYLQMNSLNPEDTAVYYCAAYSWYYTSRYDYWGQGTQVTVSS,low polyreactivity
22,QVQLVESGGGLVQAGGSLRLSCAASGSIFGINGMGWYRQAPGKERELVAAISDSGGSTYYADSVKGRFTISRDNAKNTVYLQMNSLKPEDTAVYYCAAETYWYFAQFYDLYSYDYWGQGTQVTVSS,low polyreactivity

row,Sequence,polyreactivity (PSR sort gate)
1,QVQLVESGGGLVQAGGSLRLSCAASGSIFGIYAMGWYRQAPGKERELVAAISSRAGSTNYADSVKGRFTISRDNAKNTVYLKMNSLKPEDTAVYDCNAKFSPPRRWPLRDYWGQGTQVTVSS,high polyreactivity
2,QVQLVESGGGLVQAGGSLRLSCAASGSIFGKYAMGWYRQAPGKERELVAAISERTGRTYYADSVKGRFTISRDNAKNTVYLQMNSLKPEDTAVYYCNVGPLYSGWSTYGYDYWGQGTQVTVSS,high polyreactivity
3,QVQLVESGGGLVQAGGSLRLSCAASGSIFGKYAMGWYRQAPGKERELVAAISGRGGGTYYADSVKGRFTISRDNAKNTVYLQMNSLKPEDTAVYYCNAYYSRLRYDYWGQGTQVTVSS,high polyreactivity
4,QVQLVESGGGLVQAGGSLRLSCAASGSIFGLNAMGWYRQAPGKERELVARISTGSSTNYADSVKGRFTISRDNAKNTVYLQMNSLKPEDTAVYYCAADVDGGRHYGYWGQGTQVTVSS,low polyreactivity
5,QVQLVESGGGLVQAGGSLRLSCAASGSIFGLNDMGWYRQAPGKERELVAGISSGGSTYYADSVKGRFTISRDNAKNTVYLQMNSLKPEDTAVYYCATEGRWPNASYGDYDYWGQGTQVTVSS,low polyreactivity
6,QVQLVESGGGLVQAGGSLRLSCAASGSIFGLYAMGWYRQAPGKERELVAAISASGGSTYYADSVKGRFTISRDNAKNTVYLQMNSLKPEDTAVYYCAKKQRYYGRMDYWGQGTQVTVSS,high polyreactivity
7,QVQLVESGGGLVQAGGSLRLSCAASGSIFGLYTMGWYRQAPGKERELVAAISSVGSTYYADSVKGRFTISRDNAKNTVYLQMNSLKPEDTAVYYCNVYSRTHYQTYTDDYWGQGTQVTVSS,high polyreactivity
8,QVQLVESGGGLVQAGGSLRLSCAASGSIFGNAMGWYRQAPGKEREFVAAISSSGSSTYYADSVKGRFTISRDNAKNTVYLQMNSLKPEDTAVYYCAKRRRSAAPKYDYWGQGTQVTVSS,high polyreactivity
9,QVQLVESGGGLVQAGGSLRLSCAASGSIFGPSAMGWYIQAPGKERDLVAGITRSVGSTYYADSVKGRFTISRDNAKNTVYLQMNSLKPEDTADYYCNAKWLYSRWAGYDYWGQGTQVTVSS,low polyreactivity
10,QVQLVESGGGLVQAGGSLRLSCAASGSIFGPYAMGWYRPAPGKEREFVAAISGSGGSTYYEDSVKGRFTISRDNAKNTVYLQKNSLTPEDTAVYYCAARQAYVNRGRFRGATLDYWGQGTQVTVSS,high polyreactivity
11,QVQLVESGGGLVQAGGSLRLSCAASGSIFGPYAMGWYRQAPGKERELVAAISLGGGSTSYADSVKGRFTISRDNAKNTVYLQMNSLKPEDTAVYYCATEDFRTDTGMYYWGQGTQVTVSS,low polyreactivity
12,QVQLVESGGGLVQAGGSLRLSCAASGSIFGQYAMGWYRQAPGKERELVAAISTRGGSTRYADSVKGRFTISRDNAKNTVYLQMNSLKPEDTAVYYCAARPGYLYDYWGQGTQVTVSS,high polyreactivity
13,QVQLVESGGGLVQAGGSLRLSCAASGSIFGQYAMGWYRQAPGKERELVAAITDTGDSTYYADSVMGRFTISRDNAKNTVYLQMNSLKPEDTAVYYCAADVYYAFGSMYYWGQGTQVTVSS,low polyreactivity
14,QVQLVESGGGLVQAGGSLRLSCAASGSIFGRNAMGWYRQAPGKDRELVAAINSGGSTNYADSVKGRFTISRYNAKNTVYLQMNSLKPEDTAVYYCAARTYSSGRYYGYVAFYYWGQGTQVTVSS,high polyreactivity
15,QVQLVESGGGLVQAGGSLRLSCAASGSIFGRYAMGWYRQAPGKERELVAAISYSGGSTYYADSVKGRFTISRDNAKNTVYLQMNSLKPEDTAFYYCAAETSYYTRWFDGHYYYWGQGTQVTVSS,high polyreactivity
16,QVQLVESGGGLVQAGGSLRLSCAASGSIFGRYGAMGWYRQAPGKDRELVAAIRTSGVSTYYADSVKGRYTISRDNAKKTVYLQMNSLKPEDTAVYYCAKGYTSYNLGKYGYWGQGTQVTVTS,high polyreactivity
17,QVQLVESGGGLVQAGGSLRLSCAASGSIFGRYVMGWYRQAPGKERELVATISSGGSTYYADSVKGRFTISRDNAKNTVYLQMNSLKPEDTAVYYCAASYSRFVDWIGDPGYDYWGQGTQVTVSS,low polyreactivity
18,QVQLVESGGGLVQAGGSLRLSCAASGSIFGSNAMGWYRQAPGKEREFVAAIDWGGTITYYADSVKGRFTISRDNAKNTVYLQMNSLKPEDTAVYYCAADPTYPYGYWGQGTQVTVSS,low polyreactivity
19,QVQLVESGGGLVQAGGSLRLSCAASGSIFGSNAMGWYRQAPGKEREFVAVITWRVGDTYYADSVKGRFTISRDNAKNTVYLQMYSLKPEDTAVYYCNVDWKVYGAPDYRIAWKYDYWGQGTQVTVSS,low polyreactivity
20,QVQLVESGGGLVQAGGSLRLSCAASGSIFGSNAMGWYRQAPGKERELVAAISSGSTYYADSVKGRFTISRDNAKNTVYLQMNSLKPEDTAVYYCNARSLLYEFDYWGQGTQVTVSS,low polyreactivity
21,QVQLVESGGGLVQAGGSLRLSCAASGSIFGSNAMGWYRQAPGKERELVAVITNGGRTYYADSVKGRFTISRDNAKNSVYLQMNSLNPEDTAVYYCAASRVYGWYGSYSTYGSWGQGTQVTVSS,high polyreactivity
